In PMC9482650, “Quantitative fragmentomics allow affinity mapping of interactomes” (Nature Communications, 2022):
Blank lines part the entries; values can stand above or below the binder they belong to.

Experiments:
Assay in all cases: holdup assay
Design in all cases: key: below the threshold = too weak to quantify, mostly under pKd 3.1 to 4
[1] = target: T1, NHERF3_4, Q5T2W1
T1 sequence (Q5T2W1 373-468, limits assumed, looked up): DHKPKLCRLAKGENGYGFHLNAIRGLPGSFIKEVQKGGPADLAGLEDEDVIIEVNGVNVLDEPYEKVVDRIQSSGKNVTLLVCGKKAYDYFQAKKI

[2] = target: FRMPD2_1, Q68DX3
FRMPD2_1, Q68DX3, sequence (Q68DX3 770-861): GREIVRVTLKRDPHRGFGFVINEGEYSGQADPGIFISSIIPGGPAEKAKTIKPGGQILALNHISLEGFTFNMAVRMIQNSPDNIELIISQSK

[3] = target: T2, MPDZ_12, O75970
T2 sequence (O75970 1857-1958, limits assumed, looked up): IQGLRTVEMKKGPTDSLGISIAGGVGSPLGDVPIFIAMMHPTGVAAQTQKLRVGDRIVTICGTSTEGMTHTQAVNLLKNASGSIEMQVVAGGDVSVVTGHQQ

[4] = target: Inadl_8, Q8NI35
Inadl_8, Q8NI35, sequence (Q8NI35 1425-1530): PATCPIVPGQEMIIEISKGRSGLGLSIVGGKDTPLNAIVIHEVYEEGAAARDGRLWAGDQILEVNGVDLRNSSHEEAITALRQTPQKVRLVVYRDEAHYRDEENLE

[5] = target: T3, LNX2_3, Q8N448
T3 sequence (Q8N448 463-564, limits assumed, looked up): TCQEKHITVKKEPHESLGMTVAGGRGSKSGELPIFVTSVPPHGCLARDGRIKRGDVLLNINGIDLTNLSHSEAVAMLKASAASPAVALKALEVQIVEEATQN

[6] = target: MAST2, Q6P0Q8
MAST2, Q6P0Q8, sequence (Q6P0Q8 1099-1202): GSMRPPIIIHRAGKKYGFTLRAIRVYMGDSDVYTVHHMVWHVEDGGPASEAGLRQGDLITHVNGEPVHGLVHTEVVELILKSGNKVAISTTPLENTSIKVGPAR

[7] = target: T4, SNTG2, Q9NY99
T4 sequence (Q9NY99 68-166, limits assumed, looked up): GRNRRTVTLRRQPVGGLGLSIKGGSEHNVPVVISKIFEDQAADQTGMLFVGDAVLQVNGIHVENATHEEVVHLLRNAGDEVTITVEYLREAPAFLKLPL

[8] = target: PTPN3, P26045
PTPN3, P26045, sequence (P26045 505-587): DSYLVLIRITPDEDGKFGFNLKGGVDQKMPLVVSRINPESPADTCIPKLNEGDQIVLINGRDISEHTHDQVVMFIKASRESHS

[9] = target: SCRIB_2, Q14160
SCRIB_2, Q14160, sequence (Q14160 857-960): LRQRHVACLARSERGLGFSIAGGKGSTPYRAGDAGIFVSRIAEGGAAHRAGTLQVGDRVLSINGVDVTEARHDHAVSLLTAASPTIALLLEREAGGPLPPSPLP

[10] = target: GIPC2, Q8TF65
GIPC2, Q8TF65, sequence (Q8TF65 112-203): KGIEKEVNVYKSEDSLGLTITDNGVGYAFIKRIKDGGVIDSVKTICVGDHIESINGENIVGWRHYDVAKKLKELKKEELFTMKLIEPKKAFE

[11] = target: GRIP2_4, Q9C0E4
GRIP2_4, Q9C0E4, sequence (Q9C0E4 446-548): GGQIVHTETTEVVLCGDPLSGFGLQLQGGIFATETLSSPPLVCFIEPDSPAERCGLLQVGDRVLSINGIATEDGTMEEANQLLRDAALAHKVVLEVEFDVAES

[12] = target: T5, APBA1_2, Q02410
T5 sequence (Q02410 742-832, limits assumed, looked up): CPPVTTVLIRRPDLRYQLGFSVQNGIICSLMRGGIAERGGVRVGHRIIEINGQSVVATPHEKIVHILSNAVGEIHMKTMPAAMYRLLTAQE

[13] = target: T6, DVL3, Q92997
T6 sequence (Q92997 244-331, limits assumed, looked up): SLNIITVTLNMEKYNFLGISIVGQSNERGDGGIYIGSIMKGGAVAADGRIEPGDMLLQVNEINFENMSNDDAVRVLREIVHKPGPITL

[14] = target: LIMK2, P53671
LIMK2, P53671, sequence (P53671 143-248): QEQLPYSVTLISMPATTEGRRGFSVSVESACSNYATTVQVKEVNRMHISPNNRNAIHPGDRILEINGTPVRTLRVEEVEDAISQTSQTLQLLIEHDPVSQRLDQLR

[15] = target: T7, LIN7C, Q9NUP9
T7 sequence (Q9NUP9 88-185, limits assumed, looked up): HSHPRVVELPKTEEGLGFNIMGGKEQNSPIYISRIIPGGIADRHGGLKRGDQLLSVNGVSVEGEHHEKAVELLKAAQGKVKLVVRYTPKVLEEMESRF

[16] = target: Inadl_10, Q8NI35
Inadl_10, Q8NI35, sequence (Q8NI35 1673-1763): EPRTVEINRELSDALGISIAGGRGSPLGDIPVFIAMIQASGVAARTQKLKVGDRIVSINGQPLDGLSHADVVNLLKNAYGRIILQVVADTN

[17] = target: GRIP2_7, Q9C0E4
GRIP2_7, Q9C0E4, sequence (Q9C0E4 934-1023): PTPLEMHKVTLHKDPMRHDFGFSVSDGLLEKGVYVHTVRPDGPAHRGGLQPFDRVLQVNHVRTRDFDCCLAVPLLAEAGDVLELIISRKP

[18] = target: T8, GRIP1_5, Q9Y3R0
T8 sequence (Q9Y3R0 568-668, limits assumed, looked up): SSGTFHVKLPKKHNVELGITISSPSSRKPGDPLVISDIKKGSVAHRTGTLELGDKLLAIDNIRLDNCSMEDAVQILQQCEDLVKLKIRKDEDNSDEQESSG

[19] = target: T9, SNTG1, Q9NSN8
T9 sequence (Q9NSN8 52-150, limits assumed, looked up): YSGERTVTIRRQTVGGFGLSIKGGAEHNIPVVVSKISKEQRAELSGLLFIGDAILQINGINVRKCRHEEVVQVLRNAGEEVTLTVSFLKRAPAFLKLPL

[20] = target: T10, PDZD2_2, O15018
T10 sequence (O15018 329-429, limits assumed, looked up): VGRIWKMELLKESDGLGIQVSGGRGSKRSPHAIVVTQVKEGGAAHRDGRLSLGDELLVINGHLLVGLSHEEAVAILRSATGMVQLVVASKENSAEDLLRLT

[21] = target: GORASP2, Q9H8Y8
[22] = target: DLG1_1, Q12959
[23] = target: DLG4_3, P78352
DLG4_3, P78352, sequence (P78352 306-403): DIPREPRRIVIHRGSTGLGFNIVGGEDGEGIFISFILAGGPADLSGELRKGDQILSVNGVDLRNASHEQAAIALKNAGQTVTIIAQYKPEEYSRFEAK

[24] = target: T11, APBA1_1, Q02410
T11 sequence (Q02410 651-752, limits assumed, looked up): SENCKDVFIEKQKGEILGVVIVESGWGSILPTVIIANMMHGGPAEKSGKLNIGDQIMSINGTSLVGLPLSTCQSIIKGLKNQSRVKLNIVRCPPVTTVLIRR

[25] = target: NHERF4_4, Q86UT5
NHERF4_4, Q86UT5, sequence (Q86UT5 464-550): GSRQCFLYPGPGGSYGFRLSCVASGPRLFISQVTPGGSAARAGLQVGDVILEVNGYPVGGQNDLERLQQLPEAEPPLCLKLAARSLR

[26] = target: DLG4_1, P78352
DLG4_1, P78352, sequence (P78352 62-152): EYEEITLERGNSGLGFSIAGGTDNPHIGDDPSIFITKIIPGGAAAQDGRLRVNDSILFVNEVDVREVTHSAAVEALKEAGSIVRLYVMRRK

[27] = target: IL16_3, Q14005
IL16_3, Q14005, sequence (Q14005 1107-1207): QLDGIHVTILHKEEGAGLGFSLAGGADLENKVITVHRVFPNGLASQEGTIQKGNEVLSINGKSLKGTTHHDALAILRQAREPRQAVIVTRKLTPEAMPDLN

[28] = plain residues with an end cap or a label only (N-terminal biotin on a linker: ado-ado)
[29] = plain residues with an end cap or a label only (N-terminal biotin on a linker: ahx)

Binder: GTGYDRKDYV [CLDN3, O15551]
pKd [1, 28]: below the threshold | pKd [2, 28]: below the threshold | pKd [3, 28]: below the threshold | pKd [4, 28]: 4.13 | pKd [5, 28]: below the threshold | pKd [6, 28]: below the threshold | pKd [7, 28]: below the threshold | pKd [8, 28]: 4.04 | pKd [9, 28]: below the threshold | pKd [10, 28]: below the threshold | pKd [11, 28]: 3.53 | pKd [12, 28]: 4.24 | pKd [13, 28]: 3.72 | pKd [14, 28]: below the threshold | pKd [15, 28]: below the threshold | pKd [16, 28]: below the threshold | pKd [17, 28]: below the threshold | pKd [18, 28]: below the threshold | pKd [19, 28]: below the threshold | pKd [20, 28]: 4.95 | pKd [21, 28]: 3.57 | pKd [22, 28]: below the threshold | pKd [23, 28]: below the threshold | pKd [24, 28]: below the threshold | pKd [25, 28]: below the threshold | pKd [26, 28]: below the threshold | pKd [27, 28]: below the threshold

Binder: MHIQEKGFHV [EPHA6, Q9UF33]
pKd [1, 28]: below the threshold | pKd [2, 28]: below the threshold | pKd [3, 28]: below the threshold | pKd [4, 28]: below the threshold | pKd [5, 28]: below the threshold | pKd [6, 28]: below the threshold | pKd [7, 28]: below the threshold | pKd [8, 28]: below the threshold | pKd [9, 28]: below the threshold | pKd [10, 28]: below the threshold | pKd [11, 28]: below the threshold | pKd [12, 28]: below the threshold | pKd [13, 28]: below the threshold | pKd [14, 28]: below the threshold | pKd [15, 28]: below the threshold | pKd [16, 28]: below the threshold | pKd [17, 28]: 3.93 | pKd [18, 28]: below the threshold | pKd [19, 28]: below the threshold | pKd [20, 28]: below the threshold | pKd [21, 28]: 3.62 | pKd [22, 28]: below the threshold | pKd [23, 28]: below the threshold | pKd [24, 28]: below the threshold | pKd [25, 28]: below the threshold | pKd [26, 28]: below the threshold | pKd [27, 28]: below the threshold

Binder: RDPPAEWTRV [PTPN18, Q99952]
pKd [1, 28]: below the threshold | pKd [2, 28]: below the threshold | pKd [3, 28]: 3.66 | pKd [4, 28]: 4.2 | pKd [5, 28]: below the threshold | pKd [6, 28]: 5.62 | pKd [7, 28]: 4.19 | pKd [8, 28]: below the threshold | pKd [9, 28]: 4.12 | pKd [10, 28]: below the threshold | pKd [11, 28]: below the threshold | pKd [12, 28]: 4.25 | pKd [13, 28]: below the threshold | pKd [14, 28]: below the threshold | pKd [15, 28]: below the threshold | pKd [16, 28]: 3.61 | pKd [17, 28]: below the threshold | pKd [18, 28]: below the threshold | pKd [19, 28]: below the threshold | pKd [20, 28]: 4.18 | pKd [21, 28]: 4.11 | pKd [22, 28]: 4.09 | pKd [23, 28]: below the threshold | pKd [24, 28]: below the threshold | pKd [25, 28]: below the threshold | pKd [26, 28]: 4.07 | pKd [27, 28]: below the threshold

Other lines, results leading:

pKd [1, 28]: below the threshold | pKd [2, 28]: 3.86 | pKd [3, 28]: below the threshold | pKd [4, 28]: 3.82 | pKd [5, 28]: below the threshold | pKd [6, 28]: 5.27 | pKd [7, 28]: 3.6 | pKd [8, 28]: 4.76 | pKd [9, 28]: 4.16 | pKd [10, 28]: 3.49 | pKd [11, 28]: below the threshold | pKd [12, 28]: 4.51 | pKd [13, 28]: below the threshold | pKd [14, 28]: below the threshold | pKd [15, 28]: 4.26 | pKd [16, 28]: below the threshold | pKd [17, 28]: below the threshold | pKd [18, 28]: below the threshold | pKd [19, 28]: 4.13 | pKd [20, 28]: 4.93 | pKd [21, 28]: below the threshold | pKd [22, 28]: 4.4 | pKd [23, 28]: 3.57 | pKd [24, 28]: below the threshold | pKd [25, 28]: below the threshold | pKd [26, 28]: 4.48 | pKd [27, 28]: below the threshold
Binder: VLYPREGTEV [FOXI1, Q12951]

pKd [1, 29]: below the threshold | pKd [2, 29]: below the threshold | pKd [3, 29]: below the threshold | pKd [4, 29]: below the threshold | pKd [5, 29]: below the threshold | pKd [6, 29]: below the threshold | pKd [7, 29]: below the threshold | pKd [8, 29]: 4.25 | pKd [9, 29]: below the threshold | pKd [10, 29]: below the threshold | pKd [11, 29]: below the threshold | pKd [12, 29]: below the threshold | pKd [13, 29]: below the threshold | pKd [14, 29]: below the threshold | pKd [15, 29]: below the threshold | pKd [16, 29]: below the threshold | pKd [17, 29]: below the threshold | pKd [18, 29]: below the threshold | pKd [19, 29]: below the threshold | pKd [20, 29]: below the threshold | pKd [21, 29]: below the threshold | pKd [22, 29]: below the threshold | pKd [23, 29]: below the threshold | pKd [24, 29]: below the threshold | pKd [25, 29]: below the threshold | pKd [26, 29]: below the threshold | pKd [27, 29]: below the threshold
Binder: EKQAKGDTEF [CACYBP, Q9HB71]
